“Also recorded” adds a separate entry of the source.

The values below come from patent US20160052980A1, “CRP40 FRAGMENTS FOR THE TREATMENT OF NEUROLOGICAL DISORDERS” (CRP40 INC., priority 2013, published 2016).

One assay relates to 6-OHDA rats. Put plainly: 6-OHDA rat model, apomorphine-induced rotational behaviour. Type of assay: in vivo. As to conditions: injection in left striatum; apomorphine 0.5 mg/kg s.c.; rotations counted over 10 minutes; versus controls. The procedure: 6-Hydroxydopamine (or 6-OHDA) animal model of dyskinesia and oxidative stress: The 6-OHDA model was chosen for this study as this model is characterized by oxidative stress and degeneration of DA neurons, similar to the condition in human idiopathic PD patients and is a well-known preclinical animal model of PD.
6-OHDA animals, male Sprague-Dawley rats from Charles River (Raleigh, N.C., USA), were prepared by hemi-lateral lesioning of the A9 dopaminergic pathway by injecting 6-OHDA toxin in the substantia nigra par compacta (SNc) region of the rat brain. This unilateral nigrostriatal degeneration cause assymetry in motor behaviours due to imbalanced dopimanergic activity between striata. […] Baseline rotational behavior and locomoter testing were performed before surgical intervention.
The protocol for lesioning is synonymous with our 6-OHDA stereotaxic injection protocol found in Modi et al., (1996). Rats were sent to the McMaster University animal facility and allowed to acclimatize to the colony room for 1 week following arrival. Each rat was handled by the same researcher daily for 7 days before the start of the experiment. Animals were then tested for baseline apomorphine-induced rotations (tested during light hours), and locomotor activity (tested during dark hours) under apomorphine challenge treatment. Animals were then split into groups and injected with CRP40, CRP40 fragments and peptides, and controls. Animals were housed and tested in compliance with the guidelines described in the Guide to the Care and Use of Experimental Animals (Canadian Council on Animal Care, 1984; 1993).
6-OHDA rats were injected in the left striatum with one of the various fragments via stereotaxic surgery. […] Coordinates for striatal injections of treatment are as follows: A/P +0.7 mm, M/L +3.0 mm, and D/V −5.0 mm. A 25 μl Hamilton syringe with a 22 gauge 2 inch blunt needle was used to inject treatments at a rate of 1 μl/min.
Apomorphine injection causes full body rotational behaviour in the direction contralateral to the 6-OHDA lesion. The total number of rotations per fixed time period is used as a measure of improving or worsening symptomology. A holding chamber in which the animal is confined to a circular shaped floor is used to count rotations, as this is an optimal arrangement for these experiments compared to an open field box. 0.5 mg/ml Apomorphine (Sigma: A4393) was dissolved in 0.9% saline with 0.1% ascorbic acid. Animals were injected subcutaneously with apomorphine (0.5 mg/kg body weight). Animals were placed in a clear plastic cylindrical holding tank and allowed 5 minutes for habituation. Following habituation, 10 minutes was allotted and a cell counter was used to record the number of rotations.

Assay [1] is described as follows: Competitive radioligand binding of [3H]-DA in the presence of cold DA. The settings on record: 1 nM radioligand, 10 μg protein, range of unlabeled DA. The procedure: (§1) Methods. The ability of cold DA to displace bound tritiated dopamine ([3H]-DA) in CRP40, P2P4, or heat-shock protein 47 (a control heat-shock protein that plays a role in collagen synthesis) was assessed by competitively binding [3H]-DA in the presence of different concentrations of unlabeled DA or apomorphine (in 0.1% ascorbic acid) using the same methodology as in (Gabriele et al., 2009). […] At the end of incubation, the bound and free ligands were separated by vacuum filtration through Whatman GF/B filters. The filters were washed with 3×5 ml of Tris-EDTA buffer and the radioactive counts were determined on a Beckman scintillation counter. The Assay Buffer was prepared by adding the following components to 500 ml of double distilled water: 25 ml 1M Tris-HCl (pH 8; 50 mM), […] (1 mM), 100 mM PMSF in ethanol (0.1 mM), 0.508 g MgCl2·6H2O (5 mM), 0.0077 g DTT (0.1 mM), 0.050 g Bacitracin (100 μg/ml), and 0.0025 g
(§2) Soybean Trypsin (5 μg/ml). The final pH was adjusted to 7.4. The filtration Buffer was prepared by adding the following components to 2 L of double distilled water: 100 ml 1M Tris-HCl (pH 8; 50 mM), and 4 ml 500 mM EDTA (1 mM). The final pH was adjusted to 7.4. Statistical analysis of the data was performed utilizing Graph Pad Prism 6.0 software. […]

A short description of assay [2]: Competitive radioligand binding of [3H]-DA in the presence of cold apomorphine. The settings on record: 1 nM radioligand, 10 μg protein, range of unlabeled apomorphine. The procedure:
as §1, §2

Assay [3] has as its system SH-SY5Y cells. Put plainly: OxiSelect Intracellular ROS Assay, H2O2-induced oxidative stress in transfected cells. The settings on record: overexpression in transfected SH-SY5Y cells; 500 μM H2O2; normal cells had increased ROS. Type of assay: cell-based. On the procedure: The ability of CRP40- and mortalin-transfected SH-SY5Y cells to protect against the harmful effects of mitochondrial ROS in comparison to normal non-transfected SH-SY5Y cells was measured using the OxiSelect™ Intracellular ROS Assay Kit (Green Fluorescence). H2O2 treatment was used to induce oxidative stress in the assay. Increased fluorescence in this assay corresponded to greater ROS levels.

Assay [4] deals with SH-SY5Y cells. Put plainly: ATP-Glo Bioluminometric Cell Viability Assay with MG-132 proteasomal inhibitor. Type of assay: cell-based. As to conditions: for preservation of ATP levels and cell viability under proteasomal stress: overexpression in SH-SY5Y cells, MG-132; for cell viability in basal condition versus normal non-transfected SH-SY5Y cells: no MG-132, p<0.0001. The source says: The ability of CRP40- and mortalin-transfected SH-SY5Y cells to maintain mitochondrial homeostasis, specifically energy production and ATP levels, was examined using the ATP-Glo™ Bioluminometric Cell Viability Assay Kit. MG-132 was used to inhibit proteasomal function and cause increased oxidative stress, which would compromise mitochondrial function, as well as the processes of energy production. The quantitation of ATP levels was thus used as a measure of cell viability.
FIG. 7 summarizes the results of the adenosine triphosphate assays. […] Mortalin was used as a positive control in this assay. […] The data are representative of mean±S.D. of experiments for each condition performed twice, in triplicate.

In the case of “P2P4: SEQ ID NO:5, 60-amino acid fragment spanning amino acids 95-154 of full-length CRP40 (6.6 kDa)”, in the assay with 6-OHDA rats, the “rotational behaviour in the 6-OHDA rat model” value (shortened to “rotational behaviour”) is recorded as “reduction of rotational behavior; also recorded: alleviate rotational symptoms; also recorded: as effective as full-length CRP40”. In addition, the “specific binding of [3H]-DA in competition with cold DA (dopamine binding)” value in assay [1] is “does not bind dopamine at all”. Moreover, the “specific binding of [3H]-DA in competition with cold apomorphine (apomorphine binding)” value in assay [2] is listed as “does not bind; also recorded: do not bind apomorphine”.
For “mortalin: ubiquitously expressed molecular chaperone of 649 amino acids encoded by HSPA9B; positive control in the ATP assay [reference compound]”, the “ROS levels under oxidative stress versus normal non-transfected SH-SY5Y cells” value in the assay with SH-SY5Y cells [3] is “partially preserves mitochondrial homeostasis and ROS levels”. Also, in the assay on SH-SY5Y cells [4], the “preservation of ATP levels and cell viability under proteasomal stress” value is “helps to maintain intracellular ATP levels and energy production; also recorded: partially preserve ATP levels and cell viability”; the “cell viability in basal condition versus normal non-transfected SH-SY5Y cells” value was “significantly lower”.

B1: P1P5: SEQ ID NO:4, P1P5 fragment of human CRP40 (27 kDa) (protein, listed as Homo sapiens)
chain: MDSSGPKHLNMKLTRAQFEGIVTDLIRRTIAPCQKAMQEVSKSDIGEVILVGGMTRMPKVQQTVQGLFGRAPSKAVNPDEAVAIGAAIQGGVLAGDVTDVLLLDVTPLSLGIETLGGVFTKLINRNTTIPTKKSQVFSTAADGQTQVEIKVCQGEREMAGDNKLLGQFTLIGIPPAPRGVPQIEVTFDIDANGIVHVSAKDKGTGRERQIVIQSSGGLSKDDIEENMVKNAEKYAEEDRRKKERV
For B1, the “rotational behaviour” value in the assay on 6-OHDA rats is reported as “reduction of rotational behavior; also recorded: effective”.

B2: HSP47: heat shock protein 47, a 47 kDa collagen-specific chaperone used as negative control (protein, UniProt P50454 19-418, looked up)
Serpin H1: AEVKKPAAAAAPGTAEKLSPKAATLAERSAGLAFSLYQAMAKDQAVENILVSPVVVASSLGLVSLGGKATTASQAKAVLSAEQLRDEEVHAGLGELLRSLSNSTARNVTWKLGSRLYGPSSVSFADDFVRSSKQHYNCEHSKINFRDKRSALQSINEWAAQTTDGKLPEVTKDVERTDGALLVNAMFFKPHWDEKFHHKMVDNRGFMVTRSYTVGVMMMHRTGLYNYYDDEKEKLQIVEMPLAHKLSSLIILMPHHVEPLERLEKLLTKEQLKIWMGKMQKKAVAISLPKGVVEVTHDLQKHLAGLGLTEAIDKNKADLSRMSGKKDLYLASVFHATAFELDTDGNPFDQDIYGREELRSPKLFYADHPFIFLVRDTQSGSLLFIGRLVRPKGDKMRDEL
In the case of B2, the “rotational behaviour” value in the assay with 6-OHDA rats is given as “does not elicit a correction of rotational behaviour”.

B3: CRP40: SEQ ID NO:1, full-length human catecholamine-regulated protein, 40 kDa molecular chaperone, splice variant of mortalin (protein, listed as Homo sapiens)
chain: MDSSGPKHLNMKLTRAQFEGIVTDLIRRTIAPCQKAMQDAEVSKSDIGEVILVGGMTRMPKVQQTVQDLFGRAPSKAVNPDEAVAIGAAIQGGVLAGDVTDVLLLDVTPLSLGIETLGGVFTKLINRNTTIPTKKSQVFSTAADGQTQVEIKVCQGEREMAGDNKLLGQFTLIGIPPAPRGVPQIEVTFDIDANGIVHVSAKDKGTGREQQIVIQSSGGLSKDDIENMVKNAEKYAEEDRRKKERVEAVNMAEGIIHDTETKMEEFKDQLPADECNKLKEEISKMRELLARKDSETGENIRQAASSLQQASLKLFEMAYKKMASEREGSGSSGTGEQKEDQKEEKQ
For B3, the “rotational behaviour” value in the assay on 6-OHDA rats is “alleviate rotational symptoms; also recorded: could correct movement impairments”. Moreover, the “ROS levels under oxidative stress versus normal non-transfected SH-SY5Y cells” value in the assay on SH-SY5Y cells [3] was “partially preserves mitochondrial homeostasis and ROS levels”. The “specific binding of [3H]-DA in competition with cold DA (dopamine binding)” value in assay [1] was “binds DA with high capacity and low affinity; also recorded: binds dopamine with high capacity and low affinity”. Besides, the “specific binding of [3H]-DA in competition with cold apomorphine (apomorphine binding)” value in assay [2] is reported as “binds apomorphine; also recorded: binds dopamine”. Besides, in the assay with SH-SY5Y cells [4], the “preservation of ATP levels and cell viability under proteasomal stress” value was “helps to maintain intracellular ATP levels and energy production; also recorded: partially preserve ATP levels and cell viability”; the “cell viability in basal condition versus normal non-transfected SH-SY5Y cells” value is listed as “significantly lower”.

B4: P1P3: SEQ ID NO:2, P1P3 fragment of human CRP40 (11.1 kDa) (protein, listed as Homo sapiens)
chain: MDSSGPKHLNMKLTRAQFEGIVTDLIRRTIAPCQKAMQDAEVSKSDIGEVILVGGMTRMPKVQQTVQDLFGRAPSKAVNPDEAVAIGAAIQGGVLA
Turning to B4, in the assay on 6-OHDA rats, the “rotational behaviour” value was “not effective”.
